According to patent US20070244048A1 (published 2007):
Where two headings read alike, the source gives them in different places. No end group written: not given here.

Assays:
[1] = molecular target: T1, mouse NMUR1-CTG (mouse, UniProt O55040 1-428); assay: 125I-hNMU-25 displacement, cell membranes
T1 construct: whole, on cells; Cell line with the start codon (CTG) as predicted from genomic databases; also called mouse R1-CTG
T1 sequence (looked up): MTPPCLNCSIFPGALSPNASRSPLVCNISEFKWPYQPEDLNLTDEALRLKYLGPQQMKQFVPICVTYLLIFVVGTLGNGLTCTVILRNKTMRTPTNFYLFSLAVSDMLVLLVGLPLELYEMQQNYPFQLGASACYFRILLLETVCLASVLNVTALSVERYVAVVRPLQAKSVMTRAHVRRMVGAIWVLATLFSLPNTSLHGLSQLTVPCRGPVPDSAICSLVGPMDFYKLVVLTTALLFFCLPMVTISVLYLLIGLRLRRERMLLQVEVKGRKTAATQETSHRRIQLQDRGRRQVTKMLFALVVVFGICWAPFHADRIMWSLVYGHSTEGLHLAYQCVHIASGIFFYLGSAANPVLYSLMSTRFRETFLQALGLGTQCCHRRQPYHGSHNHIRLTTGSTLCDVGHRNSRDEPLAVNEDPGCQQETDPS

[2] = molecular target: T2, human NMUR1 (human, UniProt Q9HB89 1-426); assay: 125I-hNMU-25 displacement, cell membranes
T2 construct: whole, on cells; Stably expressed in cells (FLIPR); also called hNMUR1; human R1
T2 sequence (looked up): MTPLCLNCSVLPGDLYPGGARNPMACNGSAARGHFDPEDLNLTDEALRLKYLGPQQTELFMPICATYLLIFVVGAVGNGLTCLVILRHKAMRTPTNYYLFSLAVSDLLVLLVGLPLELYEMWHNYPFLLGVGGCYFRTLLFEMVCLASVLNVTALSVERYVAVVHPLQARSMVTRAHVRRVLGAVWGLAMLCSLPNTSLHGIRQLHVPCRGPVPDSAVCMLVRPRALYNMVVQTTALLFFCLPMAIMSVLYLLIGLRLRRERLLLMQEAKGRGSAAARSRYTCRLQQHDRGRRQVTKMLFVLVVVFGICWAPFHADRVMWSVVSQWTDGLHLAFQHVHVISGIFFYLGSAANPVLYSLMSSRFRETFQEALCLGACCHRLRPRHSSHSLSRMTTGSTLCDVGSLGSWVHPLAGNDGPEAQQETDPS

[3] = molecular target: T3, mouse NMUR2 (mouse, UniProt Q8BZ39 1-395); assay: 125I-hNMU-25 displacement, cell membranes
T3 construct: whole, on cells; also called mouse R2
T3 sequence (Q8BZ39 whole entry): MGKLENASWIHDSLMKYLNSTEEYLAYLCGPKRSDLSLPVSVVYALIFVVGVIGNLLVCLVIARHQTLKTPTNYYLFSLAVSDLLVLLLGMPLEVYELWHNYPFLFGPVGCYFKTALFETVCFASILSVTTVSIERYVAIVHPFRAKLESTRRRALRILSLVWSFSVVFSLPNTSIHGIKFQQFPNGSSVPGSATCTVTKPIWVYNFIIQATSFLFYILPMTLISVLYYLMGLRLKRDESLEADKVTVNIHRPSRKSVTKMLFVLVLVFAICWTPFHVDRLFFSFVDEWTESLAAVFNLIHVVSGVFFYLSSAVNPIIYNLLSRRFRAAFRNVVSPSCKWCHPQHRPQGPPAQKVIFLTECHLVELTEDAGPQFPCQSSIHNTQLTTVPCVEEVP

[4] = molecular target: T4, human NMUR2 (human, UniProt Q9GZQ4 1-415); assay: 125I-hNMU-25 displacement, cell membranes
T4 construct: whole, on cells; Stably expressed in cells (FLIPR); also called hNMUR2; human R2
T4 sequence (Q9GZQ4 whole entry): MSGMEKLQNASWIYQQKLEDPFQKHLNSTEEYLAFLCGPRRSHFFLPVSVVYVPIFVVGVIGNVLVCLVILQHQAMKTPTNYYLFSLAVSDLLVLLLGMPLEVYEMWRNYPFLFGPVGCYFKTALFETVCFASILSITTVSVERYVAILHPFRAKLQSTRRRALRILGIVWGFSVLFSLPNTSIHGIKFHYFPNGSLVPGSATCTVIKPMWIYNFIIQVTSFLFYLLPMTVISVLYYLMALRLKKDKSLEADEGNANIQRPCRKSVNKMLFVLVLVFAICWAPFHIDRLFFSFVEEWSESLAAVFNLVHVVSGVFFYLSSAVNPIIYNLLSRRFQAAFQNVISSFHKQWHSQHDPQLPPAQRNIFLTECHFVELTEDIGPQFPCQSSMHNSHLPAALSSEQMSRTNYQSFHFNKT

[5] = molecular target: T5, rat NMUR1-ATG (rat, UniProt Q9JJI5 1-425); assay: 125I-hNMU-25 displacement, cell membranes
T5 construct: whole, on cells; Cell line with engineered ATG start codon in place of the genomic TTG; also called rat R1-ATG
T5 sequence (looked up): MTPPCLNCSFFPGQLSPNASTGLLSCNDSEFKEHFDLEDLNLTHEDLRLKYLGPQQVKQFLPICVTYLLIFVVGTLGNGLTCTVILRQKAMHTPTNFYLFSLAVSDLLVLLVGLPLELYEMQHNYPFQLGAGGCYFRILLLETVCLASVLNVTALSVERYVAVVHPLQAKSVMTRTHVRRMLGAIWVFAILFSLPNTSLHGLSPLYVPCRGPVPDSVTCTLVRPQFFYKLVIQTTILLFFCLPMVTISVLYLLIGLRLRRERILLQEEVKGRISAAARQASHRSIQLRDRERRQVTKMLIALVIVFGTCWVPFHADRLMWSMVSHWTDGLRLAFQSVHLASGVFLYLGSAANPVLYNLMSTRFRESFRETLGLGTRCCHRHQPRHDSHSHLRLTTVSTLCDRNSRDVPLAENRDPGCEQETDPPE

[6] = molecular target: T6, rat NMUR1-TTG (rat, UniProt Q9JJI5 1-425); assay: 125I-hNMU-25 displacement, cell membranes
T6 construct: whole, on cells; Cell line with the start codon (TTG) as predicted from genomic databases; also called rat R1-TTG
T6 sequence (looked up): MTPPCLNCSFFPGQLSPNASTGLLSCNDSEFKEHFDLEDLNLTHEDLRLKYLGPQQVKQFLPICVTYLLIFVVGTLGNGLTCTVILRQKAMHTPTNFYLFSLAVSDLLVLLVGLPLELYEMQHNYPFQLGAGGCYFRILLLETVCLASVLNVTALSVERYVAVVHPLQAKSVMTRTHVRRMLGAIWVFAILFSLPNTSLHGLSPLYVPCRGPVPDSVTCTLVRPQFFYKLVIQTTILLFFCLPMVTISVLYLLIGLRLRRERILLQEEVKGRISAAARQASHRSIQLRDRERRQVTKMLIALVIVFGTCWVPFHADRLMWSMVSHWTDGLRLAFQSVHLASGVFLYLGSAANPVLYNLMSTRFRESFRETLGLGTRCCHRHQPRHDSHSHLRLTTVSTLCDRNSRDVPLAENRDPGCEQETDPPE

[7] = molecular target: T7, mouse NMUR1-ATG (mouse, UniProt O55040 1-428); assay: 125I-hNMU-25 displacement, cell membranes
T7 construct: whole, on cells; Cell line with engineered ATG start codon in place of the genomic CTG; also called mouse R1-ATG
T7 sequence (looked up): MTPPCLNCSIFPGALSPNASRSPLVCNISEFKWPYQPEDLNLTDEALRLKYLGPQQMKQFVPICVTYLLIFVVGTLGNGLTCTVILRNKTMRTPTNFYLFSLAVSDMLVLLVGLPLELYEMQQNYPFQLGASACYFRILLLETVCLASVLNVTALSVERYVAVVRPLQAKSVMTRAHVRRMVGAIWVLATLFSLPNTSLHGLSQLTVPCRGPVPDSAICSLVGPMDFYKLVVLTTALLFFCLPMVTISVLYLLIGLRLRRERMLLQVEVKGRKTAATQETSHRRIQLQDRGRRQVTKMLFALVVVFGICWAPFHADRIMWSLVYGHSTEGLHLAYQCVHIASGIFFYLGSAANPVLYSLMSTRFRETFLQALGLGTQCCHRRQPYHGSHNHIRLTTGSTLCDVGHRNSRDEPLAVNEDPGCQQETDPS

[8] = molecular target: T8, rat NMUR2 (rat, UniProt Q9ESQ4 1-395); assay: 125I-hNMU-25 displacement, cell membranes
T8 construct: whole, on cells; also called rat R2
T8 sequence (Q9ESQ4 whole entry): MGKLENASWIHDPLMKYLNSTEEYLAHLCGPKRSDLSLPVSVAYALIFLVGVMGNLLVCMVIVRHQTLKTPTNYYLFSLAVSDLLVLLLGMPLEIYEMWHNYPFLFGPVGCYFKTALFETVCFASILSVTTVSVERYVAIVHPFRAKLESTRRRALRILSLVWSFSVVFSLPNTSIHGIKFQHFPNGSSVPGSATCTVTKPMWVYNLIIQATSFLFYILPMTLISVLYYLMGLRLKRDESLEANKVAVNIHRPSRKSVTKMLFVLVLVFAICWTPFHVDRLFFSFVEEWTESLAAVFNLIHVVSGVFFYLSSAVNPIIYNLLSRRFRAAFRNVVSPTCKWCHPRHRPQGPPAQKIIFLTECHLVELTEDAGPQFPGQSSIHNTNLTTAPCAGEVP

[9] = molecular target: T1, mouse NMUR1-CTG; assay: cell-based or functional assay
[10] = molecular target: T2, human NMUR1; assay: cell-based or functional assay
[11] = molecular target: T3, mouse NMUR2; assay: cell-based or functional assay
[12] = molecular target: T4, human NMUR2; assay: cell-based or functional assay
[13] = molecular target: T5, rat NMUR1-ATG; assay: cell-based or functional assay
[14] = molecular target: T6, rat NMUR1-TTG; assay: cell-based or functional assay
[15] = molecular target: T7, mouse NMUR1-ATG; assay: cell-based or functional assay
[16] = molecular target: T8, rat NMUR2; assay: cell-based or functional assay
[17] = molecular target: T1, mouse NMUR1-CTG; assay: cell-based or functional assay; remark: listed apart in the source
[18] = molecular target: T2, human NMUR1; assay: cell-based or functional assay; remark: listed apart in the source
[19] = molecular target: T3, mouse NMUR2; assay: cell-based or functional assay; remark: listed apart in the source
[20] = molecular target: T6, rat NMUR1-TTG; assay: cell-based or functional assay; remark: listed apart in the source
[21] = molecular target: T7, mouse NMUR1-ATG; assay: cell-based or functional assay; remark: listed apart in the source
[22] = molecular target: T8, rat NMUR2; assay: cell-based or functional assay; remark: listed apart in the source

FRVDEEFQSPFASQSRGYFLFRPRN-NH2 (also called hNMU-25; native hNMU) [human NMU-25]
IC50 [1]: 150 pM | IC50 [2]: 140 pM | IC50 [3]: 200 pM | IC50 [4]: 56 pM | IC50 [5]: 1200 pM | IC50 [6]: 200 pM | IC50 [7]: 400 pM | IC50 [8]: 600 pM | IC50 (nM), functional [9]: 2.9 nM | IC50 (nM), functional [10]: 0.2 nM | IC50 (nM), functional [11]: 0.2 nM | IC50 (nM), functional [12]: 0.8 nM | IC50 (nM), functional [13]: 1.3 nM | IC50 (nM), functional [14]: 1 nM | IC50 (nM), functional [15]: 0.9 nM | IC50 (nM), functional [16]: 1.6 nM | IC50 (nM), functional [17]: 2.9 nM | IC50 (nM), functional [18]: 0.2 nM | IC50 (nM), functional [19]: 0.2 nM | IC50 (nM), functional [20]: 1 nM | IC50 (nM), functional [21]: 0.9 nM | IC50 (nM), functional [22]: 1.6 nM
